Sequences and labels used below:
B1: LATS1(421–436) peptide (peptide)
peptide: LYNISVPGLQTNWPQS
notes: LATS1, human, residues 421-436; source: synthetic peptide (GeneCust)
B2: CAMK2B(13–28) peptide (peptide)
peptide: EYQLYEDIGKGAFSVV
notes: CAMK2B, human, residues 13-28; source: synthetic peptide (GeneCust)
B3: RORA(185–200) peptide (peptide)
peptide: TYNISANGLTELHDDL
notes: RORA, human, residues 185-200; source: synthetic peptide (GeneCust)
B4: ICAM3(516–531) peptide (peptide)
peptide: SGSYHVREESTYLPLT
notes: ICAM3, human, residues 516-531; source: synthetic peptide (GeneCust)
B5: PDCD6IP(853–868) peptide (peptide)
peptide: SYPFPQPPQQSYYPQQ
notes: PDCD6IP, human, residues 853-868; source: synthetic peptide (GeneCust)
B6: RIMS1(1405–1420) peptide (peptide)
peptide: MYTLEHNDGSQSDTAV
notes: RIMS1, human, residues 1405-1420; source: synthetic peptide (GeneCust)
B7: BOC(1000–1015) peptide (peptide)
peptide: LYTLPDDSTHQLLQPH
notes: BOC, human, residues 1000-1015; source: synthetic peptide (GeneCust)
B8: GCM2(274–289) peptide (peptide)
peptide: SYELANPGYTNSSPYP
notes: GCM2, human, residues 274-289; source: synthetic peptide (GeneCust)
B9: MISP(595–610) peptide (peptide)
peptide: ITGSYSVSESPFFSPI
notes: also called MISP3 peptide; source: synthetic peptide (GeneCust)
B10: FITC-EBP50 343-358 peptide (peptide)
peptide: {FITC}-APQMDWSKKNELFSNL-OH
modifications: not fully specified
notes: also called NHERF1; source: synthetic peptide (GeneCust)
B11: FITC-NOP53 192-207 peptide (peptide)
peptide: FYDLWASDNPLDRPLV
modifications: also: FITC label, position not given here
notes: NOP53, residues 192-207; source: synthetic peptide (GeneCust)
B12: FITC-LATS1 73-88 peptide (peptide)
peptide: THHKALQEIRNSLLPF
modifications: also: FITC label, position not given here
notes: LATS1, residues 73-88; source: synthetic peptide (GeneCust)
B13: FITC-TBX4 428-443 peptide (peptide)
peptide: SYSVQTMETVPYQPFP
modifications: also: FITC label, position not given here
notes: TBX4 (T-box transcription factor TBX4), residues 428-443; source: synthetic peptide (GeneCust)
B14: RRBP1(1365–1380) peptide (peptide)
peptide: RAATRLQELLKTTQEQ
notes: RRBP1, human, residues 1365-1380; also called RRBP1 peptide; source: synthetic peptide (GeneCust)
B15: FITC-NOP53(192–207) peptide (peptide)
peptide: FYDLWASDNPLDRPLV
modifications: also: FITC label, position not given here
notes: NOP53, human, residues 192-207; source: synthetic peptide (GeneCust)
B16: FITC-LATS1(73–88) peptide (peptide)
peptide: THHKALQEIRNSLLPF
modifications: also: FITC label, position not given here
notes: LATS1, human, residues 73-88; also called LATS(73–88); source: synthetic peptide (GeneCust)
B17: FITC-ZNF622(341–356) peptide (peptide, UniProt Q969S3 341-356, looked up)
peptide: LEFADFYDFRSSYPDH
modifications: not fully specified (N-terminus); also: FITC label (position not given here)
notes: also called FITC-ZNZ622; source: synthetic peptide (GeneCust)
B18: FITC-FAM83G(111–126) peptide (peptide, UniProt A6ND36 111-126, looked up)
peptide: AEPLPSLEYWPQKSDR
modifications: also: FITC label (position not given here)
notes: FAM83G, human, residues 111-126; source: synthetic peptide (GeneCust)
B19: FITC-TBX4(428–443) peptide (peptide, UniProt P57082 428-443, looked up)
peptide: SYSVQTMETVPYQPFP
modifications: also: FITC label, position not given here
notes: T-box transcription factor TBX4, human, residues 428-443; source: synthetic peptide (GeneCust)
B20: HIF1A(37–52) peptide (peptide)
peptide: FYELAHQLPLPHNVSS
notes: HIF1A, human, residues 37-52; source: synthetic peptide (GeneCust)

No end group written: not given here. *: point of attachment. FITC = O=C1OC2(c3ccc(O)cc3Oc3cc(O)ccc32)c2ccc(NC(=S)*)cc21

T1 sequence (P26038 2-295): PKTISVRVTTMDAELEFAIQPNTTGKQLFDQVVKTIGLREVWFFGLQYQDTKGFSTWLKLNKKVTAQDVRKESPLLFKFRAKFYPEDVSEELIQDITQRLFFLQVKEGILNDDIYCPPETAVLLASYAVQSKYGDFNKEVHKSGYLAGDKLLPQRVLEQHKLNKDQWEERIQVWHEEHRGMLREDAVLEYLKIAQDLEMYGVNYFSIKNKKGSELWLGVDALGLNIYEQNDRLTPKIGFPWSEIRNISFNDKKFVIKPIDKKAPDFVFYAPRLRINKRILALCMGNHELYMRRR
T2 sequence (P35241 5-295): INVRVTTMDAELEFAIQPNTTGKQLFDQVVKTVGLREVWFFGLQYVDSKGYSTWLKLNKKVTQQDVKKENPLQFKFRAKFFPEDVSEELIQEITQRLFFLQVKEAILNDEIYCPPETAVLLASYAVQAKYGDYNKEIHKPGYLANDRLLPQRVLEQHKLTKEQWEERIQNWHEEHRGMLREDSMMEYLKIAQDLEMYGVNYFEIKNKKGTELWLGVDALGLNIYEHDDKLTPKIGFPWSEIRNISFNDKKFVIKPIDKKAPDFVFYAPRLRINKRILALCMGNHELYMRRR
T4 sequence (P26038 2-295 K211A/I238A): as the sequence (P26038 2-295) above, with K210A, I237A counted along it
T3 sequence (P15311 2-296): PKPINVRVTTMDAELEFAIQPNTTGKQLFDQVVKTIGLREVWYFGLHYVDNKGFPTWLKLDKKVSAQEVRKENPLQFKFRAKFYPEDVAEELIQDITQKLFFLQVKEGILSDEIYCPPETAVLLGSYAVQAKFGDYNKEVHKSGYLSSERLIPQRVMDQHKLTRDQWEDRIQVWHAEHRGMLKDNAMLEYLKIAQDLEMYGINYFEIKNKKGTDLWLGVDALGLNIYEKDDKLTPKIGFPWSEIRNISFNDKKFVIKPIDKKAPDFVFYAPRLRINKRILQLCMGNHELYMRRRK
T5 sequence (P26038 2-295 M285A/H288A): as the sequence (P26038 2-295) above, with M284A, H287A counted along it

One assay addresses T1, moesin FERM domain (UniProt P26038 2-295).
T1 construct: moesin FERM domain from pGEX4T Moesin FERM; also called WT moesin; source: E. coli BL21(DE3), purified (GSH sepharose, thrombin cleavage on beads, benzamidine column, gel filtration); not shown: GST, N-terminal, cleaved
The experiment in a line: fluorescence polarisation; competition: precomplex of FERM domain (2 x KD) and FITC-KIRREL3(637–652) probe, titrated with unlabeled peptide; constants printed as KD′; FP buffer. As to conditions: both partners purified. A general note: Fluorescence polarisation rises when a labelled molecule tumbles more slowly, as on binding a larger partner.
A word on the Kd: it is the concentration at which binding is half-saturated. In turn, B1 had a Kd of 149 ± 5 µM. The molecule B2 yielded a Kd of 96 ± 4 µM. Same read-out and setting: under B3 stands 134 ± 3 µM. Same read-out and setting: next, B4: 113 ± 3 µM. Same read-out and setting: next, B5: 35.2 ± 0.2 µM; B6: 564 ± 5 µM; B7: 18 ± 1 µM. Take B8: binding was put at a Kd of 38 ± 3 µM.

In the case of B9, the Kd was found to be 2.3 ± 0.1 µM.

Another assay addresses T2, radixin FERM domain (as used in FP) (human, UniProt P35241 5-295).
T2 construct: human radixin FERM domain, amino acids 5-295, synthetic gene in pETM33; source: E. coli BL21(DE3), purified (GSH sepharose)
The assay is described as above. Conditions: both partners purified.
Molecule B2 yielded a Kd of 6.8 ± 0.4 µM. B7 had a Kd of 17 ± 2 µM.

Regarding B8, the Kd was 85 ± 3 µM.

The next assay concerns the target T3, ezrin FERM domain (as used in FP) (UniProt P15311 2-296).
T3 construct: ezrin FERM domain from pGEX4T1 Ezrin FERM; source: E. coli BL21(DE3), purified (GSH sepharose)
The description is as above. Conditions: both partners purified.
Turning to B2, the Kd turned out to be 26 ± 0.6 µM. With B7, the affinity, expressed as Kd, was 8 ± 0.1 µM. The same measure, in the same setting: next, B8: 205 ± 11 µM.

The next assay concerns the target T4, Moesin FERM K211A/I238A (human, UniProt P26038 2-295, K211A | I238A).
T4 construct: moesin (P26038) FERM domain from pGEX4T Moesin FERM (Addgene plasmid # 1163); also called moesin K211A/I238A; double mutant moesin FERM K211A/I238A; source: E. coli BL21(DE3), purified (GSH sepharose, thrombin cleavage, HiTrap benzamidine)
The experiment in a line: fluorescence polarisation; direct binding: FITC-labeled probe peptide (5 nM) titrated with a dilution series of moesin FERM domain; 20 mM HEPES, pH 7.4, 150 mM NaCl, 0.05% Tween-20, 3 mM DTT; quadratic equation for 1:1 binding. As to conditions: both partners purified.
B10 showed a Kd of 114 ± 7 µM. B11 had a Kd of 42 ± 1 µM. Same read-out and setting: under B12 stands 7.4 ± 0.5 µM. Same read-out and setting: under B13 stands 2.17 ± 0.31 µM; under LEFADFYDFRSSYPDH (also: FITC label, position not given here, source: synthetic peptide (GeneCust)) [FITC-ZNF622 341-356 peptide], 46 ± 2 µM. Still for that read-out and setting: under YYSVNTFKEHHSTPTI (also: FITC label, position not given here, source: synthetic peptide (GeneCust)) [FITC-KIRREL3 637-652 peptide] stands 0.17 ± 0.02 µM.

A further assay concerns the target T5, Moesin FERM M285A/H288A (human, UniProt P26038 2-295, M285A | H288A).
T5 construct: moesin (P26038) FERM domain from pGEX4T Moesin FERM (Addgene plasmid # 1163); also called moesin FERM domain (M285A and H288A); moesin FERM M285/H288A; source: E. coli BL21(DE3), purified (GSH sepharose, thrombin cleavage, HiTrap benzamidine)
The assay is described as above. Conditions: both partners purified.
Molecule B10 displayed a dissociation constant (Kd) of 3.1 ± 0.2 µM. Turning to B11, binding was put at a Kd of 2.2 ± 0.1 µM. On the same count and under the same terms, under B12 stands 1.3 ± 0.1 µM. On the same count and under the same terms, next, B13: 6.9 ± 0.4 µM. LEFADFYDFRSSYPDH (also: FITC label, position not given here, source: synthetic peptide (GeneCust)) [FITC-ZNF622 341-356 peptide] returned a Kd of 1.3 ± 0.1 µM.

Molecule YYSVNTFKEHHSTPTI (also: FITC label, position not given here, source: synthetic peptide (GeneCust)) [FITC-KIRREL3 637-652 peptide] registered a Kd of 0.84 ± 0.05 µM. Against the preceding molecule, the Kd is about 1.5-fold lower.

In another assay the target is T6, merlin FERM domain (human, UniProt P35240 22-312).
T6 construct: human merlin (NF2) FERM domain, amino acids 22-312, synthetic gene in pETM33; source: E. coli BL21(DE3), purified (GSH sepharose, HRV3C cleavage, reverse Ni-IMAC); not shown: His, N-terminal, cleaved; GST, N-terminal, cleaved
T6 sequence (looked up): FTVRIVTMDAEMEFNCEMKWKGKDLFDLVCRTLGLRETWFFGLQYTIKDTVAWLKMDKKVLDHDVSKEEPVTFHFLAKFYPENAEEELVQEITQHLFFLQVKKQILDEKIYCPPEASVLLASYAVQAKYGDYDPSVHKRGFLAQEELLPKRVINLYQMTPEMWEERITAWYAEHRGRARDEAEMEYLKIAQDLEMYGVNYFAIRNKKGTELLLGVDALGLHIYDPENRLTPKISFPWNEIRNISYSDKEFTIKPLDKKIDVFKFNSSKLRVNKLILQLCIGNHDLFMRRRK
The experiment in a line: fluorescence polarisation; direct binding: 5 nM FITC-labeled probe peptide titrated with FERM domain; 20 mM HEPES pH 7.4, 150 mM NaCl, 0.05% Tween-20, 3 mM DTT; quadratic equation for 1:1 binding. Conditions: both partners purified.
Molecule B14 came in with a Kd of 9.7 ± 0.8 µM. In the case of WSKKNELFSNL (peptide, UniProt O14745 348-358, looked up, also: FITC label, position not given here, source: synthetic peptide (GeneCust)) [FITC-EBP50(348–358) peptide], the binding result was “binds”.

Regarding B15, the binding result is “binds”.

Take B16: the binding result is listed as “binds”. Regarding B17, the binding result is “binds”.

For another assay, the target named is T2, radixin FERM domain (as used in FP). Described as above. Conditions: both partners purified.
As to YYSVNTFKEHHSTPTI (peptide, UniProt Q8IZU9 637-652, looked up, also: FITC label, position not given here, source: synthetic peptide (GeneCust)) [FITC-KIRREL3(637–652) peptide], the binding result is “binds”. The same measure, in the same setting: under B18 stands “binds”; under WSKKNELFSNL (peptide, UniProt O14745 348-358, looked up, also: FITC label, position not given here, source: synthetic peptide (GeneCust)) [FITC-EBP50(348–358) peptide], “binds”. On the same count and under the same terms, under B15 stands “binds”; under B16, “binds”; under B19, “binds”. Same read-out and setting: next, B17: “binds”.

In another assay the target is T7, moesin FERM K211A/I238A (UniProt P26038 2-295, K211A | I238A).
T7 construct: moesin FERM domain from pGEX4T Moesin FERM, double mutant; tag removal is told for moesin FERM in FP in general; also called moesin K211A/I238A; source: E. coli BL21(DE3), purified; not shown: GST, N-terminal, cleaved
T7 sequence (P26038 2-295 K211A/I238A): as the sequence (P26038 2-295) above, with K210A, I237A counted along it
The description is as above. Conditions: both partners purified.
Turning to WSKKNELFSNL (peptide, UniProt O14745 348-358, looked up, also: FITC label, position not given here, source: synthetic peptide (GeneCust)) [FITC-EBP50(348–358) peptide], the binding result was “binds”.

The target in a further assay is T8, moesin FERM M285A/H288A (UniProt P26038 2-295, M285A | H288A).
T8 construct: moesin FERM domain from pGEX4T Moesin FERM, double mutant; tag removal is told for moesin FERM in FP in general; also called moesin FERM M285/H288A; source: E. coli BL21(DE3), purified; not shown: GST, N-terminal, cleaved
T8 sequence (P26038 2-295 M285A/H288A): as the sequence (P26038 2-295) above, with M284A, H287A counted along it
The assay is described as above. As to conditions: both partners purified.
On to WSKKNELFSNL (peptide, UniProt O14745 348-358, looked up, also: FITC label, position not given here, source: synthetic peptide (GeneCust)) [FITC-EBP50(348–358) peptide], for which the binding result is “binds”.

Another assay has as its target T1, moesin FERM domain. Nature of the assay: fluorescence polarisation; competition: precomplex of moesin FERM and FITC-ZNF622 probe, titrated with unlabeled peptide; constants printed as KD′; FP buffer (for HIF1A the text names FITC-NOP53 as probe, the table's footnote FITC-ZNF622). As to conditions: both partners purified.
Turning to B20, the Kd is 3 ± 0.4 µM.

For the origin of these results see PMC10249358, “Elucidation of Short Linear Motif-Based Interactions of the FERM Domains of Ezrin, Radixin, Moesin, and Merlin” (Biochemistry, 2023).
